In FireProtDB (doi:10.1006/jmbi.1998.1906):

Settings: Homo sapiens, Thermal, DSC, glycine 0.05 M, reversible: yes, whole UniProt chain shown

B1: Lysozyme C wild type, P61626 (protein)
chain: MKALIVLGLVLLSVTVQGKVFERCELARTLKRLGMDGYRGISLANWMCLAKWESGYNTRATNYNAGDRSTDYGIFQINSRYWCNDGKTPGAVNACHLSCSALLQDNIADAVACAKRVVRDPQGIRAWVAWRNRCQNRDVRQYVQGCGV
**Q.** With B1 as the protein, how does the Tm (pH 2.53) read?
**A.** 45.5 °C

**Q.** What about the “unfolding enthalpy (calorimetric)” value (pH 2.53) of the same protein?
**A.** 75.4 kcal/mol

**Q.** And the “unfolding enthalpy (van 't Hoff)” value (pH 2.53)?
**A.** 79.8 kcal/mol

**Q.** What about the Tm (pH 2.7) of the same protein?
**A.** 49.2 °C

**Q.** What about the “unfolding enthalpy (calorimetric)” value (pH 2.7) of the same protein?
**A.** 82.5 kcal/mol

**Q.** What about the “unfolding enthalpy (van 't Hoff)” value (pH 2.7) of the same protein?
**A.** 85.4 kcal/mol

**Q.** And the Tm (pH 2.81)?
**A.** 52 °C

**Q.** And the “unfolding enthalpy (calorimetric)” value (pH 2.81)?
**A.** 85.9 kcal/mol

**Q.** What about the “unfolding enthalpy (van 't Hoff)” value (pH 2.81) of the same protein?
**A.** 89.2 kcal/mol

**Q.** And the Tm (pH 3.04)?
**A.** 55.4 °C

**Q.** What about the “unfolding enthalpy (calorimetric)” value (pH 3.04) of the same protein?
**A.** 91.6 kcal/mol

**Q.** And the “unfolding enthalpy (van 't Hoff)” value (pH 3.04)?
**A.** 95 kcal/mol

**Q.** What about the Tm (pH 3.14) of the same protein?
**A.** 57.8 °C

**Q.** And the “unfolding enthalpy (calorimetric)” value (pH 3.14)?
**A.** 96.4 kcal/mol

**Q.** And the “unfolding enthalpy (van 't Hoff)” value (pH 3.14)?
**A.** 97.4 kcal/mol
